The text below walks through data of publication PMC4186791.

Experiment in all cases: two-hybrid; LexA-Ubx variant (pLexA) and B42-partner (pB42) co-transformed into S. cerevisiae EGY48 carrying p8op-LacZ; blue/white colonies on X-gal and liquid β-galactosidase (ONPG) assay after galactose induction at 30°C, reported in Miller units
The target in assay [1] is UbxIVa Pro4 (Drosophila melanogaster).
In assay [2] the target is UbxIb N103 Pro4 (Drosophila melanogaster) (UniProt P83949).
The target in assay [3] is UbxIb Δ103–216 (Drosophila melanogaster) (UniProt P83949).
UbxIb Δ103–216 (Drosophila melanogaster), sequence (P83949 other isoform, or with tags, fused parts or gaps mutant): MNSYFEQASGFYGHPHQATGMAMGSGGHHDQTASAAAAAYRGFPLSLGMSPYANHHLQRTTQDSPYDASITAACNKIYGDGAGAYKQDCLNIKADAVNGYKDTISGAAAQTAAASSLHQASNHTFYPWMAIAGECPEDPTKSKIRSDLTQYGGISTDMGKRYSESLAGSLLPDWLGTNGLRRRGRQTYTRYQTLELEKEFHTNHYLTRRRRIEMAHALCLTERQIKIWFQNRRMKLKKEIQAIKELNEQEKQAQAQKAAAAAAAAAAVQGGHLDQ

Ribosomal protein L22, sequence (P50887 whole entry): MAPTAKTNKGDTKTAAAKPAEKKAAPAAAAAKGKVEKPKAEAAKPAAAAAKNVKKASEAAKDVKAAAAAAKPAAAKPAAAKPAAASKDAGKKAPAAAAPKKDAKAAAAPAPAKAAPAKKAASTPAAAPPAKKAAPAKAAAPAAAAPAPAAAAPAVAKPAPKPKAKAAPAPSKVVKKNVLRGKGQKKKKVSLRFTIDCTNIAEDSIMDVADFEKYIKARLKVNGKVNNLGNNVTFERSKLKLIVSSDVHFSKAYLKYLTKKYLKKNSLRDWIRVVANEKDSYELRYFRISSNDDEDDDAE
UbxIb N103 Pro4 (Drosophila melanogaster), sequence (P83949 other isoform, or with tags, fused parts or gaps amino acids 2–102 removed (N103) | A226P | Q233P): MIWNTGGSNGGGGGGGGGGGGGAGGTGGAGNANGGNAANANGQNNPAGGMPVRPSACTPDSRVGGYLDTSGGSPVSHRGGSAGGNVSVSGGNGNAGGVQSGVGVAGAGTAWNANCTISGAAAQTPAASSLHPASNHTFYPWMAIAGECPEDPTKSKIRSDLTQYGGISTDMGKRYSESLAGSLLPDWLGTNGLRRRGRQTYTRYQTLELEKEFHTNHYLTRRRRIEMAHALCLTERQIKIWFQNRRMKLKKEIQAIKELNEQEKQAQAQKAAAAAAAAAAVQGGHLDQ
14-3-3ε, sequence (P92177 whole entry): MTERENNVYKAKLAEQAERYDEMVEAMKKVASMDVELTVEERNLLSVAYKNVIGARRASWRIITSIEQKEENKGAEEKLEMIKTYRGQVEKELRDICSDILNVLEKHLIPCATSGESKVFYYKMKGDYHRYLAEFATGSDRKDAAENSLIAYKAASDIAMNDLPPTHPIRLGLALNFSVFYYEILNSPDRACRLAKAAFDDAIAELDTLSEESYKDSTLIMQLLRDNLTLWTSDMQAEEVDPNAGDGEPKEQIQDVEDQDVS
Dishevelled, sequence (P51140 whole entry): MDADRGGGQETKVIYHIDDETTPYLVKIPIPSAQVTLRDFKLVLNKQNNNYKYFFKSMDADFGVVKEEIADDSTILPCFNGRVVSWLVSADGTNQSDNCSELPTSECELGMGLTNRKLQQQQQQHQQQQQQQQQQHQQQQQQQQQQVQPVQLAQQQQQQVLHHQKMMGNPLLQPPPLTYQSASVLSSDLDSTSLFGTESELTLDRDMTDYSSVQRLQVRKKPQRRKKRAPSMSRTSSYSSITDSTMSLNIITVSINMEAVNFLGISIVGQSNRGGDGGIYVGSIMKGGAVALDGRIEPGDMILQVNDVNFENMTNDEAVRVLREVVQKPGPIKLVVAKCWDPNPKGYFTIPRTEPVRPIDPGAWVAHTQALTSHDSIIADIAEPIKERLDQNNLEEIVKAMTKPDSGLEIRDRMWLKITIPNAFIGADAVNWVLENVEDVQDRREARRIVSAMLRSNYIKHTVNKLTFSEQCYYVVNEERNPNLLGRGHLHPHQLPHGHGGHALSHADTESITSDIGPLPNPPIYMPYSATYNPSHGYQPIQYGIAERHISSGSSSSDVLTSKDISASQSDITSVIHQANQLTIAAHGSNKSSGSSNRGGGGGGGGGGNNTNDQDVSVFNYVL

In turn, “14-3-3ε (from UniProt P92177 1-262) (natural protein)” yielded a percent of reporter signal lost relative to UbxIb Pro4 in assay [1] greater than 59%.
Consider Apontic (natural protein), for which the percent of reporter signal lost relative to UbxIb Pro4 in assay [1], in assay [2] and in assay [3] was greater than 59% each time.
For “Dishevelled (from UniProt P51140 1-623) (natural protein)”, the percent of reporter signal lost relative to UbxIb Pro4 in assay [1] was greater than 59%.
The same measure, in the same setting: the result for “Ribosomal protein L22 (from UniProt P50887 1-299) (natural protein)” reads greater than 59%.
